From PMC3299985 (Structure(London, England:1993), 2012) come the findings set out here.

First the molecules themselves.
B1: S. cerevisiae Cdc6 (natural protein, UniProt P09119 1-513, looked up)
chain: MSAIPITPTKRIRRNLFDDAPATPPRPLKRKKLQFTDVTPESSPEKLQFGSQSIFLRTKALLQKSSELVNLNSSDGALPARTAEYEQVMNFLAKAISEHRSDSLYITGPPGTGKTAQLDMIIRQKFQSLPLSLSTPRSKDVLRHTNPNLQNLSWFELPDGRLESVAVTSINCISLGEPSSIFQKIFDSFQDLNGPTLQIKNMQHLQKFLEPYHKKTTFVVVLDEMDRLLHANTSETQSVRTILELFLLAKLPTVSFVLIGMANSLDMKDRFLSRLNLDRGLLPQTIVFQPYTAEQMYEIVIQKMSSLPTIIFQPMAIKFAAKKCAGNTGDLRKLFDVLRGSIEIYELEKRFLLSPTRGSLNSAQVPLTPTTSPVKKSYPEPQGKIGLNYIAKVFSKFVNNNSTRTRIAKLNIQQKLILCTIIQSLKLNSDATIDESFDHYIKAITKTDTLAPLQRNEFLEICTILETCGLVSIKKTKCKGKTKRFVDKIDVDLDMREFYDEMTKISILKPFLH
B2: Orc4 (subunit of the purified ORC) (natural protein, S. cerevisiae, UniProt P54791 1-529, looked up)
chain: MTISEARLSPQVNLLPIKRHSNEEVEETAAILKKRTIDNEKCKDSDPGFGSLQRRLLQQLYGTLPTDEKIIFTYLQDCQQEIDRIIKQSIIQKESHSVILVGPRQSYKTYLLDYELSLLQQSYKEQFITIRLNGFIHSEQTAINGIATQLEQQLQKIHGSEEKIDDTSLETISSGSLTEVFEKILLLLDSTTKTRNEDSGEVDRESITKITVVFIFDEIDTFAGPVRQTLLYNLFDMVEHSRVPVCIFGCTTKLNILEYLEKRVKSRFSQRVIYMPQIQNLDDMVDAVRNLLTVRSEISPWVSQWNETLEKELSDPRSNLNRHIRMNFETFRSLPTLKNSIIPLVATSKNFGSLCTAIKSCSFLDIYNKNQLSNNLTGRLQSLSDLELAILISAARVALRAKDGSFNFNLAYAEYEKMIKAINSRIPTVAPTTNVGTGQSTFSIDNTIKLWLKKDVKNVWENLVQLDFFTEKSAVGLRDNATAAFYASNYQFQGTMIPFDLRSYQMQIILQELRRIIPKSNMYYSWTQL
B3: Orc3 (subunit of the purified ORC) (natural protein, S. cerevisiae, UniProt P54790 1-616, looked up)
chain: MSDLNQSKKMNVSEFADAQRSHYTVYPSLPQSNKNDKHIPFVKLLSGKESEVNVEKRWELYHQLHSHFHDQVDHIIDNIEADLKAEISDLLYSETTQKRRCFNTIFLLGSDSTTKIELKDESSRYNVLIELTPKESPNVRMMLRRSMYKLYSAADAEEHPTIKYEDINDEDGDFTEQNNDVSYDLSLVENFKRLFGKDLAMVFNFKDVDSINFNTLDNFIILLKSAFKYDHVKISLIFNINTNLSNIEKNLRQSTIRLLKRNYHKLDVSSNKGFKYGNQIFQSFLDTVDGKLNLSDRFVEFILSKMANNTNHNLQLLTKMLDYSLMSYFFQNAFSVFIDPVNVDFLNDDYLKILSRCPTFMFFVEGLIKQHAPADEILSLLTNKNRGLEEFFVEFLVRENPINGHAKFVARFLEEELNITNFNLIELYHNLLIGKLDSYLDRWSACKEYKDRLHFEPIDTIFQELFTLDNRSGLLTQSIFPSYKSNIEDNLLSWEQVLPSLDKENYDTLSGDLDKIMAPVLGQLFKLYREANMTINIYDFYIAFRETLPKEEILNFIRKDPSNTKLLELAETPDAFDKVALILFMQAIFAFENMGLIKFQSTKSYDLVEKCVWRGI
B4: Orc5 (subunit of the purified ORC) (natural protein, S. cerevisiae, UniProt P50874 1-479, looked up)
chain: MNVTTPEVAFREYQTNCLASYISADPDITPSNLILQGYSGTGKTYTLKKYFNANPNLHAVWLEPVELVSWKPLLQAIARTVQYKLKTLYPNIPTTDYDPLQVEEPFLLVKTLHNIFVQYESLQEKTCLFLILDGFDSLQDLDAALFNKYIKLNELLPKDSKINIKFIYTMLETSFLQRYSTHCIPTVMFPRYNVDEVSTILVMSRCGELMEDSCLRKRIIEEQITDCTDDQFQNVAANFIHLIVQAFHSYTGNDIFALNDLIDFKWPKYVSRITKENIFEPLALYKSAIKLFLSTDDNLSENGQGESAITTNRDDLENSQTYDLSIISKYLLIASYICSYLEPRYDASIFSRKTRIIQGRAAYGRRKKKEVNPRYLQPSLFAIERLLAIFQAIFPIQGKAESGSLSALREESLMKANIEVFQNLSELHTLKLIATTMNKNIDYLSPKVRWKVNVPWEIIKEISESVHFNISDYFSDIHE
B5: Orc6 (subunit of the purified ORC) (natural protein, S. cerevisiae, UniProt P38826 1-435, looked up)
chain: MSMQQVQHCVAEVLRLDPQEKPDWSSGYLKKLTNATSILYNTSLNKVMLKQDEEVARCHICAYIASQKMNEKHMPDLCYYIDSIPLEPKKAKHLMNLFRQSLSNSSPMKQFAWTPSPKKNKRSPVKNGGRFTSSDPKELRNQLFGTPTKVRKSQNNDSFVIPELPPMQTNESPSITRRKLAFEEDEDEDEEEPGNDGLSLKSHSNKSITGTRNVDSDEYENHESDPTSEEEPLGVQESRSGRTKQNKAVGKPQSELKTAKALRKRGRIPNSLLVKKYCKMTTEEIIRLCNDFELPREVAYKIVDEYNINASRLVCPWQLVCGLVLNCTFIVFNERRRKDPRIDHFIVSKMCSLMLTSKVDDVIECVKLVKELIIGEKWFRDLQIRYDDFDGIRYDEIIFRKLGSMLQTTNILVTDDQYNIWKKRIEMDLALTEPL

What all share (assay): cryo-EM structure
The target of assay [1] is T1, Orc1 (subunit of the purified ORC) (S. cerevisiae, UniProt P54784 1-914).
T1 sequence (looked up): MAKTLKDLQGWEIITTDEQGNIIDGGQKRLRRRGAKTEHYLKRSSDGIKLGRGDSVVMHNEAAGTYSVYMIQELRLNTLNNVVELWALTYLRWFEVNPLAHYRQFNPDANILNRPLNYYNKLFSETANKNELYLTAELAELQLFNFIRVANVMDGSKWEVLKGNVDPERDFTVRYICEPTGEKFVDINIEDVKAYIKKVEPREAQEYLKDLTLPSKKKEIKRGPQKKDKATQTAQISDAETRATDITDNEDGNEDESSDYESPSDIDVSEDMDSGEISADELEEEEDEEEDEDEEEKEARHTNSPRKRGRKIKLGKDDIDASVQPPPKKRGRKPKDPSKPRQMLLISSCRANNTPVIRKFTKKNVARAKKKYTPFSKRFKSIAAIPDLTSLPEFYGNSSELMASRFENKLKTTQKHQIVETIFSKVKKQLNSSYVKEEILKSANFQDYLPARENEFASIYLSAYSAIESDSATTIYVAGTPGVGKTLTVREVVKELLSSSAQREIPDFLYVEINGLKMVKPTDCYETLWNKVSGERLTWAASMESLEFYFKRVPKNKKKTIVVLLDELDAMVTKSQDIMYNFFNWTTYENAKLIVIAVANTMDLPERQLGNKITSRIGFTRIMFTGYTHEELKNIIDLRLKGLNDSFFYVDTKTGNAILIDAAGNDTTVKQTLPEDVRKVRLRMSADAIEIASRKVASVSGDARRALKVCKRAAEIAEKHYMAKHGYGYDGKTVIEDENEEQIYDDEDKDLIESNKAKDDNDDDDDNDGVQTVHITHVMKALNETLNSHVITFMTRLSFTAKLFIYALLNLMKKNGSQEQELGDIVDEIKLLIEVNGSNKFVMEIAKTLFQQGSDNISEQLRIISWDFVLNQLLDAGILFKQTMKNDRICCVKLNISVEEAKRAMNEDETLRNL

For assay [2], the target named is T2, Orc2 (subunit of the purified ORC) (S. cerevisiae, UniProt P32833 1-620).
T2 sequence (looked up): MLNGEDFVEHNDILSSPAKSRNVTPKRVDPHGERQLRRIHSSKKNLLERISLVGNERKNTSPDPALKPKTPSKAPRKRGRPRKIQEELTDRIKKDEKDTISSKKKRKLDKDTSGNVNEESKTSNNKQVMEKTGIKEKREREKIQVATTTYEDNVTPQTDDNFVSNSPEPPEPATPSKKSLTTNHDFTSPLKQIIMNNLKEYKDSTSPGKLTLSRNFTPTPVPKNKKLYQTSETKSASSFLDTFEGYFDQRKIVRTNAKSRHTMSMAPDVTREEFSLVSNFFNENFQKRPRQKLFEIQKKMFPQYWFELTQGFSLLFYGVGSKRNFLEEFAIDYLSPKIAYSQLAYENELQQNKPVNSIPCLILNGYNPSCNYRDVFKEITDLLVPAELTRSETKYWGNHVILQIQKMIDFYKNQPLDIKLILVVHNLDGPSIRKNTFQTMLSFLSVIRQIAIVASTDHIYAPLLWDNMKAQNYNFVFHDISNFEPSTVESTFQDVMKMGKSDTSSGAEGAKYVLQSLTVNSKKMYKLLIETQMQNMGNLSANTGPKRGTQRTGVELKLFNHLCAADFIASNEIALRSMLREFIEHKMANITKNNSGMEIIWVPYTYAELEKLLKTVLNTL

In assay [3] the target is B2.

In the case of B1, the binding result in assay [1] is reported as “binds”.

Take B2: the binding result in assay [1] is “binds”.

Consider B3, for which, in assay [2], the binding result is given as “binds”.

As to B4, the binding result in assay [2] and in assay [3] was “binds” in each case.

With B5, in assay [2], the binding result is “binds”.
